Experimental data taken from paper PMC8373112.

system: RqcH-HTF wild-type (Bacillus subtilis); test: EMSA; settings: native tRNA modifications, deacylated; EMSA: HEPES:Polymix buffer, 5 mM Mg2+, 0.1 uM tRNA, 1 uM mRNA(MVF) competitor, 37 C 5 min, gel at 4 C; pull-down: HEPES:Polymix pH 7.5, 1 mM DTT, 5 mM MgOAc …

Substance | K half [nM]
tRNAVal | 390
tRNAAla | 190
tRNALys | 310
